Measured values from paper PMC9482650, “Quantitative fragmentomics allow affinity mapping of interactomes” (Nature Communications, 2022).
Where a chain is given by its changes, count along the chain named.

Legend:
Assay in all cases: holdup assay
Design in all cases: key: below the threshold = too weak to quantify, mostly under pKd 3.1 to 4
Details in all cases: plain residues with an end cap or a label only (N-terminal biotin on a linker: ahx)
[1] = target: ARHGEF12, Q9NZN5-2
[2] = target: SCRIB_3, Q14160
Sequence of SCRIB_3, Q14160 (Q14160 999-1103): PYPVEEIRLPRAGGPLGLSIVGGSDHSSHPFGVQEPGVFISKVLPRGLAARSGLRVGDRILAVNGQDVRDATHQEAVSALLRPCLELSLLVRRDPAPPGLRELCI

[3] = target: T1, GRIP1_2, Q9Y3R0
T1 sequence (Q9Y3R0 145-248, limits assumed, looked up): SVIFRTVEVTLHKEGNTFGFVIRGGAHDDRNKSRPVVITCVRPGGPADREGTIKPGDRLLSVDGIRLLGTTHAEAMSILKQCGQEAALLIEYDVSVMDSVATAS

[4] = target: T2, LIN7A, O14910
T2 sequence (O14910 103-200, limits assumed, looked up): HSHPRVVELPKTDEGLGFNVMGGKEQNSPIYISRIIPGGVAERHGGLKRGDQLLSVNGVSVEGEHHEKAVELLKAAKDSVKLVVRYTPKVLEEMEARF

[5] = target: HTRA2, O43464
Sequence of HTRA2, O43464 (O43464 355-458): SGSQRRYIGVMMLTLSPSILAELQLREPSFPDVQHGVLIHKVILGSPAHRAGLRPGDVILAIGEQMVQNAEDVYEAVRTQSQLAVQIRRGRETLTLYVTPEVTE

[6] = target: NHERF4_1, Q86UT5-2
Sequence of NHERF4_1, Q86UT5-2 (Q86UT5 other isoform, or with tags, fused parts or gaps): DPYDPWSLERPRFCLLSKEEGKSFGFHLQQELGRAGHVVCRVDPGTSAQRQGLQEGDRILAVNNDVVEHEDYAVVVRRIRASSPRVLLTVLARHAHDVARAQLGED

[7] = target: FRMPD2_2, Q68DX3
Sequence of FRMPD2_2, Q68DX3 (Q68DX3 944-1038): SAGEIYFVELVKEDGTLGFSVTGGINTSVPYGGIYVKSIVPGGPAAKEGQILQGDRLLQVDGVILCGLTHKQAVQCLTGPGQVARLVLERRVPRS

[8] = target: T3, DLG3_1, Q92796
T3 sequence (Q92796 125-227, limits assumed, looked up): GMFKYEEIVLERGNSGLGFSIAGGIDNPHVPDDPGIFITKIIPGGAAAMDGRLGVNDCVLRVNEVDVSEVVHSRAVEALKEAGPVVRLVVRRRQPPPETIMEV

[9] = target: TJP1_3, Q07157
Sequence of TJP1_3, Q07157 (Q07157 416-512): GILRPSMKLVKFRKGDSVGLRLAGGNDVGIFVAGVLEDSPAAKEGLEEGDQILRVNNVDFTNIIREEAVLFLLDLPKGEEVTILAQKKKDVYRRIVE

[10] = target: Inadl_8, Q8NI35
Sequence of Inadl_8, Q8NI35 (Q8NI35 1425-1530): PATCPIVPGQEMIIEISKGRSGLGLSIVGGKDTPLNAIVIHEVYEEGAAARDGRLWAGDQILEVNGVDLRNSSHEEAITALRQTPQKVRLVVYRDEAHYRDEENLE

[11] = target: T4, DVL3, Q92997
T4 sequence (Q92997 244-331, limits assumed, looked up): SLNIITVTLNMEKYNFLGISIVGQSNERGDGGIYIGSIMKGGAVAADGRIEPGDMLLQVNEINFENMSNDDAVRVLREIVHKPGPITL

[12] = target: PDLIM1, O00151
Sequence of PDLIM1, O00151 (O00151 1-87): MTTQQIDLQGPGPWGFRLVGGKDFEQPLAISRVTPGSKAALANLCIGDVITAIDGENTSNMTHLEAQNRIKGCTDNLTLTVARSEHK

[13] = target: T5, PCLO, Q9Y6V0
T5 sequence (Q9Y6V0 4491-4600, limits assumed, looked up): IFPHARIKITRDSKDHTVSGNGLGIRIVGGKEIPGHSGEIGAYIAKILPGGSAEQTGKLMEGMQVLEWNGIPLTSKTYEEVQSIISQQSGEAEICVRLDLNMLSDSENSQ

[14] = target: HTRA1, Q92743
Sequence of HTRA1, Q92743 (Q92743 360-477): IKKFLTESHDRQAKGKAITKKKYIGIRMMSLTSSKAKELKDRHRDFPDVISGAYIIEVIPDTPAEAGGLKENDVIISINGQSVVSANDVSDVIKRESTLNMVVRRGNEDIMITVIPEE

[15] = target: IL16_4, Q14005
Sequence of IL16_4, Q14005 (Q14005 1229-1329): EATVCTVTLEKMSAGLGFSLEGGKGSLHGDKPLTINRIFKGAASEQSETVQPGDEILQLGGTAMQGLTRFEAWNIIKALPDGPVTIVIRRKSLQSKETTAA

[16] = target: T6, FRMPD1, Q5SYB0
T6 sequence (Q5SYB0 52-145, limits assumed, looked up): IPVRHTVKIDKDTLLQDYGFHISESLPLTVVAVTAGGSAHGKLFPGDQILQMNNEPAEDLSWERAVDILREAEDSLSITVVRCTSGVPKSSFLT

[17] = target: T7, PDZRN3_1, Q9UPQ7
T7 sequence (Q9UPQ7 244-349, limits assumed, looked up): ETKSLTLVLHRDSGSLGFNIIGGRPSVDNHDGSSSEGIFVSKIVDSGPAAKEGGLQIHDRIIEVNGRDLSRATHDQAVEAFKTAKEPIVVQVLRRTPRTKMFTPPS

[18] = target: T8, MPP6, Q9NZW5
T8 sequence (Q9NZW5 125-219, limits assumed, looked up): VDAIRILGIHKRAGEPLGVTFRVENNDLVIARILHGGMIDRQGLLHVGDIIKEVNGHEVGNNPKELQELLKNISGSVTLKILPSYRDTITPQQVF

[19] = target: GRID2IP_1, A4D2P6
Sequence of GRID2IP_1, A4D2P6 (A4D2P6 1-87): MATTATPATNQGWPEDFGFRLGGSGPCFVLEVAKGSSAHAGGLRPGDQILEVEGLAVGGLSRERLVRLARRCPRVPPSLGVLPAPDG

[20] = target: T9, SNTG1, Q9NSN8
T9 sequence (Q9NSN8 52-150, limits assumed, looked up): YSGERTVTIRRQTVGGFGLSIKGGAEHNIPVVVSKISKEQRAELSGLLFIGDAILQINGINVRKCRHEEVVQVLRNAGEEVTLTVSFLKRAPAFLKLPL

[21] = target: LAP2, Q96RT1
Sequence of LAP2, Q96RT1 (Q96RT1 other isoform, or with tags, fused parts or gaps): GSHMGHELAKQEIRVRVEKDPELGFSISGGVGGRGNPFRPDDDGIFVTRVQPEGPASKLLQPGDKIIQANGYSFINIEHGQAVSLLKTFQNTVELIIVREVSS

[22] = target: T10, DLG3_2, Q92796
T10 sequence (Q92796 221-321, limits assumed, looked up): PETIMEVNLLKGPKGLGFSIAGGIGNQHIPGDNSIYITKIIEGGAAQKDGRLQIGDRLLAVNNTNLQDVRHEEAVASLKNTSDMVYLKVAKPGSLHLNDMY

[23] = target: T11, APBA2_1, Q99767
T11 sequence (Q99767 563-664, limits assumed, looked up): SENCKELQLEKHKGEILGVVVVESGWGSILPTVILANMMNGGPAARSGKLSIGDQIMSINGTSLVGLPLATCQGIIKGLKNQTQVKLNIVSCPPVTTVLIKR

[24] = target: LNX1_3, Q8TBB1
Sequence of LNX1_3, Q8TBB1 (Q8TBB1 500-596): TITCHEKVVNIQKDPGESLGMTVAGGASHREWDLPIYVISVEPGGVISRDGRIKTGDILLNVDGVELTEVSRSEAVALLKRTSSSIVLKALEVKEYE

[25] = target: GORASP2, Q9H8Y8
[26] = target: T12, LIN7B, Q9HAP6
T12 sequence (Q9HAP6 88-185, limits assumed, looked up): T2 sequence (O14910 103-200, limits assumed, looked up) with S2A, V20I, I35V, E42D, H65Q, K77Q, D78G, K89R

Sequence of ARHGEF12, Q9NZN5-2 (Q9NZN5 other isoform, or with tags, fused parts or gaps): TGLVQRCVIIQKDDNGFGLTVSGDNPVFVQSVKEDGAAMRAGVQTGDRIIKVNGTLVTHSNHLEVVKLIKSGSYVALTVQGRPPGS

**Q.** Which pKd [1] does the source give for TESNLQTSSC [CGN, Q9P2M7] here?
**A.** 3.71

**Q.** And the pKd [2]?
**A.** below the threshold

**Q.** What about the pKd [3] of the same binder?
**A.** below the threshold

**Q.** What about the pKd [4] of the same binder?
**A.** below the threshold

**Q.** And the pKd [5]?
**A.** below the threshold

**Q.** And the pKd [6]?
**A.** 3.62

**Q.** And the pKd [7]?
**A.** below the threshold

**Q.** And the pKd [8]?
**A.** below the threshold

**Q.** What about the pKd [9] of the same binder?
**A.** below the threshold

**Q.** What about the pKd [10] of the same binder?
**A.** 4.18

**Q.** And the pKd [11]?
**A.** below the threshold

**Q.** What about the pKd [12] of the same binder?
**A.** below the threshold

**Q.** What about the pKd [13] of the same binder?
**A.** below the threshold

**Q.** And the pKd [14]?
**A.** below the threshold

**Q.** What about the pKd [15] of the same binder?
**A.** below the threshold

**Q.** What about the pKd [16] of the same binder?
**A.** below the threshold

**Q.** And the pKd [17]?
**A.** below the threshold

**Q.** And the pKd [18]?
**A.** below the threshold

**Q.** What about the pKd [19] of the same binder?
**A.** below the threshold

**Q.** And the pKd [20]?
**A.** below the threshold

**Q.** And the pKd [21]?
**A.** below the threshold

**Q.** What about the pKd [22] of the same binder?
**A.** below the threshold

**Q.** What about the pKd [23] of the same binder?
**A.** below the threshold

**Q.** What about the pKd [24] of the same binder?
**A.** below the threshold

**Q.** What about the pKd [25] of the same binder?
**A.** below the threshold

**Q.** What about the pKd [26] of the same binder?
**A.** below the threshold

**Q.** APSRKLNTEI [TIAM1, Q13009] was tested. Which pKd [1] did it give?
**A.** 3.76

**Q.** What about the pKd [2] of the same binder?
**A.** below the threshold

**Q.** What about the pKd [3] of the same binder?
**A.** below the threshold

**Q.** And the pKd [4]?
**A.** below the threshold

**Q.** What about the pKd [5] of the same binder?
**A.** below the threshold

**Q.** What about the pKd [6] of the same binder?
**A.** below the threshold

**Q.** What about the pKd [7] of the same binder?
**A.** below the threshold

**Q.** What about the pKd [8] of the same binder?
**A.** below the threshold

**Q.** And the pKd [9]?
**A.** below the threshold

**Q.** And the pKd [10]?
**A.** below the threshold

**Q.** What about the pKd [11] of the same binder?
**A.** below the threshold

**Q.** And the pKd [12]?
**A.** below the threshold

**Q.** What about the pKd [13] of the same binder?
**A.** below the threshold

**Q.** What about the pKd [14] of the same binder?
**A.** below the threshold

**Q.** And the pKd [15]?
**A.** below the threshold

**Q.** And the pKd [16]?
**A.** below the threshold

**Q.** What about the pKd [17] of the same binder?
**A.** below the threshold

**Q.** What about the pKd [18] of the same binder?
**A.** below the threshold

**Q.** And the pKd [19]?
**A.** below the threshold

**Q.** What about the pKd [20] of the same binder?
**A.** below the threshold

**Q.** What about the pKd [21] of the same binder?
**A.** below the threshold

**Q.** And the pKd [22]?
**A.** 3.72

**Q.** What about the pKd [23] of the same binder?
**A.** below the threshold

**Q.** And the pKd [24]?
**A.** below the threshold

**Q.** What about the pKd [25] of the same binder?
**A.** below the threshold

**Q.** What about the pKd [26] of the same binder?
**A.** below the threshold
